B1: PINK1-V5 WT (V5-6xHis-tagged PINK1 wild type) [human] / CDC37 [human (endogenous in HeLa)] (parent)
chain 1: MAVRQALGRGLQLGRALLLRFTGKPGRAYGLGRPGPAAGCVRGERPGWAAGPGAEPRRVGLGLPNRLRFFRQSVAGLAARLQRQFVVRAWGCAGPCGRAVFLAFGLGLGLIEEKQAESRRAVSACQEIQAIFTQKSKPGPDPLDTRRLQGFRLEEYLIGQSIGKGCSAAVYEATMPTLPQNLEVTKSTGLLPGRGPGTSAPGEGQERAPGAPAFPLAIKMMWNISAGSSSEAILNTMSQELVPASRVALAGEYGAVTYRKSKRGPKQLAPHPNIIRVLRAFTSSVPLLPGALVDYPDVLPSRLHPEGLGHGRTLFLVMKNYPCTLRQYLCVNTPSPRLAAMMLLQLLEGVDHLVQQGIAHRDLKSDNILVELDPDGCPWLVIADFGCCLADESIGLQLPFSSWYVDRGGNGCLMAPEVSTARPGPRAVIDYSKADAWAVGAIAYEIFGLVNPFYGQGKAHLESRSYQEAQLPALPESVPPDVRQLVRALLQREASKRPSARVAANVLHLSLWGEHILALKNLKLDKMVGWLLQQSAATLLANRLTEKCCVETKMKMLFLANLECETLCQAALLLCSWRAAL
chain 2: MVDYSVWDHIEVSDDEDETHPNIDTASLFRWRHQARVERMEQFQKEKEELDRGCRECKRKVAECQRKLKELEVAEGGKAELERLQAEAQQLRKEERSWEQKLEEMRKKEKSMPWNVDTLSKDGFSKSMVNTKPEKTEEDSEEVREQKHKTFVEKYEKQIKHFGMLRRWDDSQKYLSDNVHLVCEETANYLVIWCIDLEVEEKCALMEQVAHQTIVMQFILELAKSLKVDPRACFRQFFTKIKTADRQYMEGFNDELEAFKERVRGRAKLRIEKAMKEYEEEERKKRLGPGGLDPVEVYESLPEELQKCFDVKDVQMLQDAISKMDPTDAKYHMQRCIDSGLWVPNSKASEAKEGEEAGPGDPLLEAVPKTGDEKDVSV
B2: PINK1-V5 WT (V5-6xHis-tagged PINK1 wild type) [human] / TOM40 [human (endogenous in HeLa)] (parent)
chain 1: B1 chain 1
chain 2: MGNVLAASSPPAGPPPPPAPALVGLPPPPPSPPGFTLPPLGGSLGAGTSTSRSSERTPGAATASASGAAEDGACGCLPNPGTFEECHRKCKELFPIQMEGVKLTVNKGLSNHFQVNHTVALSTIGESNYHFGVTYVGTKQLSPTEAFPVLVGDMDNSGSLNAQVIHQLGPGLRSKMAIQTQQSKFVNWQVDGEYRGSDFTAAVTLGNPDVLVGSGILVAHYLQSITPCLALGGELVYHRRPGEEGTVMSLAGKYTLNNWLATVTLGQAGMHATYYHKASDQLQVGVEFEASTRMQDTSVSFGYQLDLPKANLLFKGSVDSNWIVGATLEKKLPPLPLTLALGAFLNHRKNKFQCGFGLTIG

In experiment [1] the parent is B1. Kind of experiment: co-immunoprecipitation (V5 agarose) with western blot quantification. As to conditions: HeLa cells, read off a plot. Background: Immunoblotting shows a protein as a band on a membrane.
The variants in experiment [2] derive from B2. The experiment is described as above. The note with it: HeLa cells, read off a plot.

Turning to chain 1 MAVRQALGRGLQLGRALLLRFTGKPGRAYGLGRPGPAAGCVRGERPGWAAGPGAEPRRVGLGLPNRLRFFRQSVAGLAARLQRQFVVRAWGCAGPCGRAVFLAFGLGLGLIEEKQAESRRAVSACQEIQAIFTQKSKPGPDPLDTRRLQGFRLEEYLIGQSIGKGCSAAVYEATMPTLPQNLEVTKSTGLLPGRGPGTSAPGEGQERAPGAPAFPLAIKMMWNISAGSSSEAILNTMSQELVPASRVALAGEYGAVTYRKSKRGPKQLAPHPNIIRVLRAFTSSVPLLPGALVDYPDVLPSRLHPEGLGHGRTLFLVMKNYPCTLRQYLCVNTPSPRLAAMMLLQLLEGVDHLVQQGIAHRDLKSDNNLVELDPDGCPWLVIADFGCCLADESIGLQLPFSSWYVDRGGNGCLMAPEVSTARPGPRAVIDYSKADAWAVGAIAYEIFGLVNPFYGQGKAHLESRSYQEAQLPALPESVPPDVRQLVRALLQREASKRPSARVAANVLHLSLWGEHILALKNLKLDKMVGWLLQQSAATLLANRLTEKCCVETKMKMLFLANLECETLCQAALLLCSWRAAL [chain 1 I368N], the values for the response (cdc37/V5 ratio) in experiment [1] (10 μM CCCP for 2 h) and in experiment [1] (untreated (no CCCP)) were 0.66 and 0.61, respectively.

Take chain 1 MAVRQALGRGLQLGRALLLRFTGKPGRAYGLGRPGPAAGCVRGERPGWAAGPGAEPRRVGLGLPNRLRFFRQSVAGLAARLQRQFVVRAWGCAGPCGRAVFLAFGLGLGLIEEKQAESRRAVSACQEIQAIFTQKSKPGPDPLDTRRLQGFRLEEYLIGQSIGKGCSAAVYEATMPTLPQNLEVTKSTGLLPGRGPGTSAPGEGQERAPGAPAFPLAIKMMWNISAGSSSEAILNTMSQELVPASRVALAGEYGAVTYRKSKRGPKQLAPHPNIIRVLRAFTSSVPLLPGALVDYPDVLPSRLHPEGLGHGRTLFLVMKNYPCTLRQYLCVNTPSPRLAAMMLLQLPEGVDHLVQQGIAHRDLKSDNILVELDPDGCPWLVIADFGCCLADESIGLQLPFSSWYVDRGGNGCLMAPEVSTARPGPRAVIDYSKADAWAVGAIAYEIFGLVNPFYGQGKAHLESRSYQEAQLPALPESVPPDVRQLVRALLQREASKRPSARVAANVLHLSLWGEHILALKNLKLDKMVGWLLQQSAATLLANRLTEKCCVETKMKMLFLANLECETLCQAALLLCSWRAAL [chain 1 L347P]: the results for the response (cdc37/V5 ratio) in experiment [1] (10 μM CCCP for 2 h) and in experiment [1] (untreated (no CCCP)) were 0.55 and 0.58, respectively.

On to chain 1 MAVRQALGRGLQLGRALLLRFTGKPGRAYGLGRPGPAAGCVRGERPGWAAGPGAEPRRVGLGLPNRLRFFRQSVAGLAARLQRQFVVRAWGCAGPCGRAVFLAFGLGLGLIEEKQAESRRAVSACQEIQAIFTQKSKPGPDPLDTRRLQGFRLEEYLIGQSIGKGCSAAVYEATMPTLPQNLEVTKSTGLLPGRGPGTSAPGEGQERAPGAPAFPLAIKMMWNISAGSSSEAILNTMSQELVPASRVALAGEYGAVTYRKSKRGPKQLAPHPNIIRVLRAFTSSVPLLPGALVDYPDVLPSRLHPEGLGHGRTLFLVMKNYPCTLRQYLCVNTPSPRLAAMMLLQLLEGVDHLVQQGIAHRDLKSDNNLVELDPDGCPWLVIADFGCCLADESIGLQLPFSSWYVDRGGNGCLMAPEVSTARPGPRAVIDYSKADAWAVGAIAYEIFGLVNPFYGQGKAHLESRSYQEAQLPALPESVPPDVRQLVRALLQREASKRPSARVAANVLHLSLWGEHILALKNLKLDKMVGWLLQQSAATLLANRLTEKCCVETKMKMLFLANLECETLCQAALLLCSWRAAL [chain 1 I368N], for which the response (Tom40/V5 ratio) was found to be 0.32 in experiment [2] (10 μM CCCP for 2 h) and 0.42 in experiment [2] (untreated (no CCCP)).

As to chain 1 MAVRQALGRGLQLGRALLLRFTGKPGRAYGLGRPGPAAGCVRGERPGWAAGPGAEPRRVGLGLPNRLRFFRQSVAGLAARLQRQFVVRAWGCAGPCGRAVFLAFGLGLGLIEEKQAESRRAVSACQEIQAIFTQKSKPGPDPLDTRRLQGFRLEEYLIGQSIGKGCSAAVYEATMPTLPQNLEVTKSTGLLPGRGPGTSAPGEGQERAPGAPAFPLAIKMMWNISAGSSSEAILNTMSQELVPASRVALAGEYGAVTYRKSKRGPKQLAPHPNIIRVLRAFTSSVPLLPGALVDYPDVLPSRLHPEGLGHGRTLFLVMKNYPCTLRQYLCVNTPSPRLAAMMLLQLPEGVDHLVQQGIAHRDLKSDNILVELDPDGCPWLVIADFGCCLADESIGLQLPFSSWYVDRGGNGCLMAPEVSTARPGPRAVIDYSKADAWAVGAIAYEIFGLVNPFYGQGKAHLESRSYQEAQLPALPESVPPDVRQLVRALLQREASKRPSARVAANVLHLSLWGEHILALKNLKLDKMVGWLLQQSAATLLANRLTEKCCVETKMKMLFLANLECETLCQAALLLCSWRAAL [chain 1 L347P], the values for the response (Tom40/V5 ratio) in experiment [2] (10 μM CCCP for 2 h) and in experiment [2] (untreated (no CCCP)) were 0.19 and 0.35, respectively.

(Values after PMC5404317.)
